Data set [1] concerns the molecule itself. Kind of data set: cryo-EM structure; single particle cryo-EM of ELIC or ELIC5 in SMA, saposin, spMSP1D1 or spNW15 nanodiscs with 2:1:1 POPC:POPE:POPG; 10 mM HEPES pH 7.5, 100 mM NaCl; with 50 mM propylamine or apo; C5 symmetry in 3D classification and refinement.
The data set “cryo-EM structure” deals with the molecule itself. Kind of data set: cryo-EM structure.

These results are taken from publication PMC10762164, “Lipid nanodisc scaffold and size alter the structure of a pentameric ligand-gated ion channel” (Nature Communications, 2024).

Residue numbers refer to the chain shown, from its start. Names and notes keep the numbering of the source.

B1: Erwinia ligand-gated ion channel (ELIC), wild type (natural protein, UniProt P0C7B7 1-321, looked up)
chain: APADNAADARPVDVSVSIFINKIYGVNTLEQTYKVDGYIVAQWTGKPRKTPGDKPLIVENTQIERWINNGLWVPALEFINVVGSPDTGNKRLMLFPDGRVIYNARFLGSFSNDMDFRLFPFDRQQFVLELEPFSYNNQQLRFSDIQVYTENIDNEEIDEWWIRKASTHISDIRYDHLSSVQPNQNEFSRITVRIDAVRNPSYYLWSFILPLGLIIAASWSVFWLESFSERLQTSFTLMLTVVAYAFYTSNILPRLPYTTVIDQMIIAGYGSIFAAILLIIFAHHRQAMGVEDDLLIQRCRLAFPLGFLAIGCVLVIRGITL
notes: Erwinia ligand-gated ion channel (ELIC), a pentameric ligand-gated ion channel, from plasmid pET-26-MBP-ELIC; Homopentamer; also called WT ELIC
With B1, the binding result in data set [1] is on record as “binds”.

B2: ELIC5 (P254G/C300S/V261Y/G319F/I320F), non-desensitizing mutant of ELIC (natural protein)
chain: B1 chain with P253G, V260Y, C299S, G318F, I319F
B2: the binding result in “cryo-EM structure” is given as “binds”.
